Reference: paper PMC11570498, “A promiscuous mechanism to phase separate eukaryotic carbon fixation in the green lineage” (Nature Plants, 2024)

How the values were obtained:
[1] = biological target: T1, CsLinker α3–α4 fragment (residues 142–272) (Chlorella sorokiniana UTEX1230); assay: SPR; Rubisco immobilised as bait, fragments as analyte (prey); Biacore T100/T200, 25 °C; analyte injected at 15 μl/min for 30 s, 360 s dissociation; fit of y = Bmax·x/(KD + x); apparent KD; triplicate; conditions: both partners purified
T1 construct: CsLinker (CSI2_123000012064), Chlorella sorokiniana UTEX1230, residues 142–272: two repeats with predicted α-helices 3 and 4; residues numbered by their position in the full-length CsLinker; From the plasmid His-mEGFP-TEV-α3–α4-TEV-MBP-His; also called α3–α4 double repeat fragment; source: E. coli BL21 (DE3), purified (IMAC, TEV cleavage, second IMAC, SEC); not shown: His6, N-terminal, cleaved; …

[2] = biological target: T2, CsLinker α3 fragment (residues 142–207) (Chlorella sorokiniana UTEX1230); assay: as above; conditions: both partners purified
T2 construct: CsLinker (CSI2_123000012064), Chlorella sorokiniana UTEX1230, residues 142–207: one whole repeat centred on predicted α-helix 3; residues numbered by their position in the full-length CsLinker; From the plasmid His-mEGFP-TEV-α3-TEV-MBP-His; also called single helix α3 fragment; source: E. coli BL21 (DE3), purified (IMAC, TEV cleavage, second IMAC, SEC); not shown: His6, N-terminal, cleaved; …

- Kd [1]: 1.56 µM
- Kd [2]: 162 µM
B1: Ulva mutabilis Rubisco (UmRubisco) (complex)
chain 1: GVKDYRLTYYTPDYQVKDTDILAAFRMTPQPGVPAEEAGAAVAAESSTGTWTTVWTDGLTSLDRYKGRCYDIEPLGEDDQYIAYIAYPLDLFEEGSVTNLFTSIVGNVFGFKALRALRLEDLRIPPAYVKTFQGPPHGIQVERDKLNKYGRGLLGCTIKPKLGLSAKNYGRAVYECLRGGLDFTKDDENVNSQPFMRWRDRFLFVAEAIYKSQSETGEVKGHYLNATAGTCEEMMERGQFAKDLGVPIVMHDYITGGFTANTTLAHFCRASGLLLHIHRAMHAVIDRQRNHGIHFRVLAKILRMSGGDHLHSGTVVGKLEGEREITLGFVDLMRDDYIEKDRSRGIYFTQDWVSLPGTMPVASGGIHVWHMPALVEIFGDDACLQFGGGTLGHPWGNAPGAAANRVALEACTQARNEGRDLASEGGDVIRAA
chain 2: MRVWTPHNNKMFETFSFLPPLSHGEIARQVDYIIANGWTSCLEFADSDCAYVQDKANIRFGNSASCNYYDNRYWTMWKLPMFGCTNPNEVLGEIDSCKRAFPESYIRLVAFDNIAQCQTIGFLVNRPPRSGDFQSPENRSVA
